# What was measured:
# Assay type in all cases: biochemical, Bacillus subtilis
# [1] = substrate: C[C@H](NC(=O)CCC(=O)O)C(=O)N[C@@H](C)C(=O)N1CCC[C@H]1C(=O)N[C@@H](Cc1ccccc1)C(=O)Nc1ccc([N+](=O)[O-])cc1; test: Amidase activity: hydrolysis of p-nitroanilide peptide substrates; conditions: 0.1M Tris-HCl, 10 mM CaCl2, pH 8, 37° C.
# Method: (§1) The amidase activities of subtilisin and derivatives thereof were measured on the substrate succinyl-Ala-Ala-Pro-Phe-p-nitroanilide (sAAPF-pna) at 37° C. in 0.1M Tris-HCl, pH 8.0 and 10 mM CaCl2. Assays were initiated by mixing the enzyme, the substrate and the reaction buffer. The amount of released p-nitroaniline was measured spectrophotometrically at 410 nm as a function of time. KM and kcat values for hydrolysis of sAAPF-pna by the subtilisin variants were obtained by nonlinear regression of the data using the program Enzfitter (Biosoft).
# (§2) For activity measurements in mixed buffer (containing DMF), a portion of the aqueous buffer was replaced by the percentage (w/v) of DMF indicated in Table II. Kinetic constants are reported in Table II for the wild-type enzyme and six variants with 3-10 amino acid substitutions in 20% and 40% DMF.
# (§3) The effects of different amino acid substitutions at position 103 on amidase activity were investigated. The variants Q103E, Q103K, and Q103S were constructed by PCR site-directed mutagenesis as described in Example VIII. The amidase activities of these variants and the variant Q103R identified by random mutagenesis and screening for enhanced activity in the presence of DMF (Example IV) are compared in Table III. The reactions were carried out in 10% DMF according to the procedures outlined in Examples XI and XII.
# The effects of the Q103R amino acid substitution on amidase activity were investigated for two substrates, succinyl-Ala-Ala-Pro-Phe-p-nitroanilide (negatively-charged succinyl group at the peptide N-terminus) and Ala-Ala-Pro-Phe-p-nitroanilide (positively charged N-terminus) in 10% DMF.
# [2] = substrate: C[C@H](NC(=O)CCC(=O)O)C(=O)N[C@@H](C)C(=O)N1CCC[C@H]1C(=O)N[C@@H](Cc1ccccc1)C(=O)Nc1ccc([N+](=O)[O-])cc1; test: Amidase activity: hydrolysis of p-nitroanilide peptide substrate; conditions: other: 0% DMF, 0.1M Tris-HCl, 10 mM CaCl2, pH 8, 37° C.
# Method: as §1, §2
# [3] = substrate: C[C@H](NC(=O)CCC(=O)O)C(=O)N[C@@H](C)C(=O)N1CCC[C@H]1C(=O)N[C@@H](Cc1ccccc1)C(=O)Nc1ccc([N+](=O)[O-])cc1; test: as above; conditions: other: 10% DMF, 0.1M Tris-HCl, 10 mM CaCl2, pH 8, 37° C.
# Method: as §1, §2, §3
Protein,Km [2] [µM],kcat [2] [s⁻¹],kcat/Km [2] [M^-1 s^-1 × 10^3],other results
"Bacillus subtilis subtilisin E variant Q103R (Bacillus subtilis subsp. subtilis str. 168; A256V/Q209R) (protein, each contain 275 residues; made in house; host or cells: Bacillus subtilis DB428 (vector pKWC), secreted into the medium) AQSVPYGISQIKAPALHSQGYTGSNVKVAVIDSGIDSSHPDLNVRGGASFVPSETNPYQDGSSHGTHVAGTIAALNNSIGVLGVAPSASLYAVKVLDSTGSGRYSWIINGIEWAISNNMDVINMSLGGPTGSTALKTVVDKAVSSGIVVVAAAGNEGSSGSTSTVGYPAKYPSTIAVGAVNSSNQRASFSSAGSELDVMAPGVSIQSTLPGGTYGAYNGTSMATPHVAGAAALILSKHPTWTNAQVRDRLESTATYLGNSFYYGKGLINVQAAAQ",,,,Km ([1]; other: 0% DMF): 250 µM; kcat ([1]; other: 0% DMF): 31 s⁻¹; Km ([1]; other: 10% DMF (Table III)): 1300 µM; kcat ([1]; other: 10% DMF (Table III)): 34 s⁻¹; kcat/Km ([1]; other: 10% DMF (Table III)): 26 M^-1 s^-1 × 10^3
"Bacillus subtilis subtilisin E variant 3M (D60N + Q103R + N218S) (Bacillus subtilis subsp. subtilis str. 168; A256V/D166N/N324S/Q209R) (protein, each contain 275 residues; made in house; host or cells: Bacillus subtilis DB428 (vector pKWC), secreted into the medium) AQSVPYGISQIKAPALHSQGYTGSNVKVAVIDSGIDSSHPDLNVRGGASFVPSETNPYQNGSSHGTHVAGTIAALNNSIGVLGVAPSASLYAVKVLDSTGSGRYSWIINGIEWAISNNMDVINMSLGGPTGSTALKTVVDKAVSSGIVVVAAAGNEGSSGSTSTVGYPAKYPSTIAVGAVNSSNQRASFSSAGSELDVMAPGVSIQSTLPGGTYGAYSGTSMATPHVAGAAALILSKHPTWTNAQVRDRLESTATYLGNSFYYGKGLINVQAAAQ",110,40,360,
Bacillus subtilis subtilisin E variant 7M (D60N + Q103R + N218S + D97G + E156G + N181S + G131D) (Bacillus subtilis subsp. subtilis str. 168; … (protein) AQSVPYGISQIKAPALHSQGYTGSNVKVAVIDSGIDSSHPDLNVRGGASFVPSETNPYQNGSSHGTHVAGTIAALNNSIGVLGVAPSASLYAVKVLGSTGSGRYSWIINGIEWAISNNMDVINMSLGGPTDSTALKTVVDKAVSSGIVVVAAAGNGGSSGSTSTVGYPAKYPSTIAVGAVSSSNQRASFSSAGSELDVMAPGVSIQSTLPGGTYGAYSGTSMATPHVAGAAALILSKHPTWTNAQVRDRLESTATYLGNSFYYGKGLINVQAAAQ,30,18,606,
"Bacillus subtilis subtilisin E variant Q103S (Bacillus subtilis subsp. subtilis str. 168; A256V/Q209S) (protein, each contain 275 residues; made in house; host or cells: Bacillus subtilis DB428 (vector pKWC), secreted into the medium) AQSVPYGISQIKAPALHSQGYTGSNVKVAVIDSGIDSSHPDLNVRGGASFVPSETNPYQDGSSHGTHVAGTIAALNNSIGVLGVAPSASLYAVKVLDSTGSGSYSWIINGIEWAISNNMDVINMSLGGPTGSTALKTVVDKAVSSGIVVVAAAGNEGSSGSTSTVGYPAKYPSTIAVGAVNSSNQRASFSSAGSELDVMAPGVSIQSTLPGGTYGAYNGTSMATPHVAGAAALILSKHPTWTNAQVRDRLESTATYLGNSFYYGKGLINVQAAAQ",,,,Km [3]: 3000 µM; kcat [3]: 20 s⁻¹; kcat/Km [3]: 7.0 M^-1 s^-1 × 10^3
"Bacillus subtilis subtilisin E variant 4M (D60N + Q103R + N218S + D97G) (Bacillus subtilis subsp. subtilis str. 168; A256V/D166N/D203G/N324S/Q209R) (protein, each contain 275 residues; made in house; host or cells: Bacillus subtilis DB428 (vector pKWC), secreted into the medium) AQSVPYGISQIKAPALHSQGYTGSNVKVAVIDSGIDSSHPDLNVRGGASFVPSETNPYQNGSSHGTHVAGTIAALNNSIGVLGVAPSASLYAVKVLGSTGSGRYSWIINGIEWAISNNMDVINMSLGGPTGSTALKTVVDKAVSSGIVVVAAAGNEGSSGSTSTVGYPAKYPSTIAVGAVNSSNQRASFSSAGSELDVMAPGVSIQSTLPGGTYGAYSGTSMATPHVAGAAALILSKHPTWTNAQVRDRLESTATYLGNSFYYGKGLINVQAAAQ",170,43,249,
